The values that follow come from US20250304937A1.

Test [1] concerns the target IVIg (Octagam), pool of human IgG (human). As to the kind of experiment: cell-based or functional assay.
For test [2] the target is unchanged. The experiment in a line: cell-based or functional assay. The source holds these as a separate data set.

Read-outs that look alike come from different tables or passages of the source.

In the case of “pCART124 (IdeS control with N terminal methionine and histidine tag) (enzyme)”, the 2nd IgG heavy chain scIgG to F(ab')2, Conc. of enzyme (ng/ml), gel in test [1] stood at 6000 ng/mL. Also, in test [2], the 1st IgG heavy chain IgG to scIgG, Conc. of enzyme (ng/ml), gel was 1900 ng/mL and the 2nd IgG heavy chain scIgG to F(ab')2, Conc. of enzyme (ng/ml), gel came to 7500 ng/mL.
